Data as given in US20240398899A1 (priority 2021, published 2024).

Experiments:
Assay type in all cases: cell-based, human
SH-SY5Y neuronal cells = assay: Mitochondrial membrane potential against MPP+ iodide damage, JC-1 assay; conditions: MPP+ iodide 1 mM; for Mitochondrial membrane potential: red/green fluorescence ratio
Protocol: The plated cells were incubated overnight in 5% CO2 incubator at 37° C. After 24 h, cells were treated with concentrations of recombinant lectin protein having SEQ ID NO: 1 ranging from 1 μg/ml-50 μg/ml for 24 h. After 24 h of treatment, cells were exposed to damage (MPP+ iodide 1 mM) for 24 h. […] Untreated cells were included as control. Cells treated with Deprenyl served as positive control. After MPP+ iodide exposure, the protective effect of recombinant lectin protein having SEQ ID NO: 1 on mitochondrial membrane potential was assessed by JC-1 assay as follows; after incubation, the supernatants were discarded and 100 μl of JC1-dye solution (prepared by diluting 1 mM DMSO stock in to 10 μM in 1×PBS) was added to each well. The cells were then incubated with the dye in CO2 incubator at 37° C. for 15 min. After 15 min of incubation, the supernatant was removed, and the cells were washed twice with 1×PBS (phosphate buffer saline). 100 μl of 1×PBS was finally added to each well. Red fluorescence (excitation 550 nm, emission 600 nm) and green fluorescence (excitation 485 nm, emission 535 nm) were measured using Biotek Synergy HT plate reader. The mitochondrial membrane potential (Δψm) was calculated as the ratio of intensity of red fluorescence to intensity of green fluorescence described as follows: • Δψm=Intensity of red fluorescence/Intensity of green fluorescence • The percentage increase/restoration in Mitochondrial Membrane Potential against MPP+ iodide damage was calculated as:
[formula] • Where X=Δψm corresponding to SEQ ID NO: 1+ MPP+ iodide treated cells • R=Δψm corresponding to control cells (MPP+ iodide damage alone)

MPO = assay: Alzheimer's biomarker multiplex analysis, scopolamine-damaged SH-SY5Y; conditions: Scopolamine (4 mM)
Protocol: (§1) After overnight incubation as in the previous examples, cells were treated with recombinant lectin protein having SEQ ID NO: 1 at different concentrations ranging from 0.001 μg/ml-1 μg/ml for 24 h for Parkinson disease and 0.01 μg/ml-25 μg/ml for 24 h for Alzheimer's disease. • Parkinson Disease: After 24 h of pre-treatment with recombinant lectin protein having SEQ ID NO: 1, cells were exposed (MPP+) for another 24 h. Cells treated with MPP+Iodide were included as Control. […] The cells treated with Galantamine were included as positive Control.
(§2) The levels of markers were determined by multiplex analysis as: Cell culture supernatants were diluted (1:2) with Calibrator Diluent. 50 μl of standard or sample was added per well. 50 μl of the microparticle cocktail was added to each well of the microplate and covered with a foil plate sealer. The plate was incubated for 2 hours at room temperature on a horizontal orbital microplate shaker. The plate was washed using a magnetic device designed to accommodate a microplate. Washing was done by applying the magnet to the bottom of the microplate, allowing 1 minute before removing the liquid, filling each well with wash buffer (100 μl) and allowing 1 minute before removing the liquid again. 50 μl of diluted Biotin-Antibody Cocktail was added to each well. Covered the plate with a foil plate sealer and incubated for 1 hour at room temperature on the shaker. Repeated the wash step. 50 μl of diluted Streptavidin-PE was added to each well. The plate was securely covered with a foil plate sealer and incubated for 30 minutes at room temperature on the shaker. Repeated the wash step. The microparticles were resuspended by adding 100 μl of Wash Buffer to each well. The plate was incubated for 2 minutes on the shaker and read within 90 minutes using Magpix® multiplex machine. Levels of biomarkers for Parkinson's and Alzheimer's disease were estimated using Magpix® multiplex machine.
(§3) For Alzheimer's disease the percent modulation in each sample was determined as follows: […]

b-NGF = assay: as above; conditions: Scopolamine (4 mM)
Protocol: as §1, §2, §3

B1: SEQ ID NO: 1: variant of the S. rolfsii lectin amino acid sequence (reported as Rec-2 in WO2010/095143) (protein)
chain: TYKITVRVYQTNPDAFFHPVEKTVWKYANGGTWTITDDQHVLTMGGSGTSGTLRFHADNGESFTATFGVHNYKRWCDIVTNLAADETGMVINQQYYSQKNREEARERQLSNYQVKNAKGRNFQIVYTEAEGNDLHANLIIG
% Increase in Mitochondrial potential (w.r.t. control) (SH-SY5Y neuronal cells; 1 μg/mL): 22.7%
Mitochondrial membrane potential (SH-SY5Y neuronal cells; 1 μg/mL): 2.3
% Increase in Mitochondrial potential (w.r.t. control) (SH-SY5Y neuronal cells; 5 μg/mL): 86.6%
Mitochondrial membrane potential (SH-SY5Y neuronal cells; 5 μg/mL): 3.4
% Increase in Mitochondrial potential (w.r.t. control) (SH-SY5Y neuronal cells; 10 μg/mL): 115.9%
Mitochondrial membrane potential (SH-SY5Y neuronal cells; 10 μg/mL): 4
% Increase in Mitochondrial potential (w.r.t. control) (SH-SY5Y neuronal cells; 25 μg/mL): 84.7%
Mitochondrial membrane potential (SH-SY5Y neuronal cells; 25 μg/mL): 3.4
% Increase in Mitochondrial potential (w.r.t. control) (SH-SY5Y neuronal cells; 50 μg/mL): 77.5%
Mitochondrial membrane potential (SH-SY5Y neuronal cells; 50 μg/mL): 3.3
% Change of Biomarkers markers (wrt Control) MPO (MPO; 0.01 μg/mL): 1.7%
% Change of Biomarkers markers (wrt Control) MPO (MPO; 0.1 μg/mL): −64%
% Change of Biomarkers markers (wrt Control) MPO (MPO; 1 μg/mL): −45.9%
% Change of Biomarkers markers (wrt Control) MPO (MPO; 10 μg/mL): 0%
% Change of Biomarkers markers (wrt Control) MPO (MPO; 25 μg/mL): 0%
% Change of Biomarkers markers (wrt Control) b-NGF (b-NGF; 0.01 μg/mL): 0%
% Change of Biomarkers markers (wrt Control) b-NGF (b-NGF; 0.1 μg/mL): 0%
% Change of Biomarkers markers (wrt Control) b-NGF (b-NGF; 1 μg/mL): −9%
% Change of Biomarkers markers (wrt Control) b-NGF (b-NGF; 10 μg/mL): 41.1%
% Change of Biomarkers markers (wrt Control) b-NGF (b-NGF; 25 μg/mL): 88.9%
